Reference: patent publication US20160235810A1, “METHODS OF TREATING DIABETES AND RELATED DISORDERS” (NOVARTIS AG, priority 2013, published 2016)

Columns and labels:
[1] = system: diabetic non-human primates; conditions: Kharitonenkov et al. 2007; cited from earlier work
[2] = system: high fat diet-induced obese (DIO) mice; test: OGTT after hydrodynamic injection (HDI) of vector encoding PIP/Sval1 in high fat DIO mice; format: in vivo
Text: To ascertain if this newly implicated factor can replicate some of the benefits shown by the RYGB surgery, a hydrodynamic gene delivery method was developed in-house. We tested the effect of delivery of DNA encoding the secreted factor PIP in vivo. The Fc-fusion proteins of PIP was encoded in pLEV113 vector, which was delivered via hydrodynamic injection (HDI) in high fat diet-induced obese (DIO) mice.
Mice, that were maintained for 12 weeks on high fat diet (60% Kcal fat, Research Diets), were sorted into groups based on their body weights and fed blood glucose levels. On the day of HDI of the PIP vector or control pLEV113 vector (30 ug/mouse), mice were placed in a restrainer and tails were cleaned with 70% alcohol. A 27-G butterfly needle connected with a 3 ml syringe was inserted into the tail vain, with bevel facing up, and pulled backwards on the syringe plunger to ensure blood was drawn into the syringe. The desired volumes (7% of body weight, up to a total of 3.2 mL) of DNA construct solution was injected over a short period (5-10 seconds) by hand. The needle was then withdrawn and bleeding stopped by adding pressure to the injection site with gauze.
After the HDI procedure, mice were monitored twice daily in the first 48 hours and then once per day for a week. Basal fed blood glucose levels in mice were measured at day 14, and blood samples were collected to obtain plasma for measuring Fc level or for endogenous protein levels in the future.
At day 16 post-HDI an OGTT was conducted to evaluate glucose handling and beta cell function. Basal and glucose-stimulated glucose and insulin levels were measured over 2-3 hours during the OGTT.
At day 30, basal blood glucose levels, changes in weight or food intake, and another functional tests, such as an OGTT, were performed for a 2nd time.
At day 40 post-HDI, the study was terminated by euthanization of mice and plasma collected for key metabolic biomarkers.

B1: FGF-21: Fibroblast Growth factor 21, an endocrine hormone; proposed fusion partner (protein)
chain: HPIPDSSPLLQFGGQVRQRYLYTDDAQQTEAHLEIREDGTVGGAADQSPESLLQLKALKPGVIQILGVKTSRFLCQRPDGALYGSLHFDPEACSFRELLLEDGYNVYQSEAHGLPLHLPGNKSPHRDPAPRGPARFLPLPGLPPALPEPPGILAPQPPDVGSSDPLSMVGPSQGRSPSYAS
[1]
  increase in HDL cholesterol: ~80%

B2: mouse PIP: mouse prolactin-inducible protein, delivered as DNA in pLEV113 vector via hydrodynamic injection (full length native and Fc-tagged tested) (protein, UniProt P02816 27-146, looked up)
Prolactin-inducible protein …: QDDENVRKPLLIEIDVPSTAQENQEITVQVTVETQYRECMVIKAYLVSNEPMEGAFNYVQTRCLCNDHPIRFFWDIIITRTVTFATVIDIVREKNICPNDMAVVPITANRYYTYNTVRMN
[2]; hydrodynamic gene delivery, high fat DIO mice, glucose AUC 0-120 min, compared to vector control group
  reduction in glucose area under the curve during an OGTT: 30%
[2]; hydrodynamic gene delivery, high fat DIO mice, insulin AUC 0-30 min, compared to vector control group
  increase in insulin area under the curve (GSIS) during an OGTT: 72%

B3: human PIP: human prolactin-inducible protein (GenBank NP_002643), here delivered via HDI of vector (protein, UniProt P12273 29-146, looked up)
Prolactin-inducible protein: QDNTRKIIIKNFDIPKSVRPNDEVTAVLAVQTELKECMVVKTYLISSIPLQGAFNYKYTACLCDDNPKTFYWDFYTNRTVQIAAVVDVIRELGICPDDAAVIPIKNNRFYTIEILKVE
[2]; HDI administration in DIO mice
  beta cell function compared to mouse Sval1: improved beta cell function similar to that of mouse Sval1
